This note sets out measurements from paper PMC1807967.

Read-outs that look alike come from different tables or passages of the source.

Common to all, as to assay: EMSA
(In general: Mobility shift assays separate free from complexed probe on a gel.)

One series deals with T1, ttSmr (Thermus thermophilus, UniProt Q5SHT5 621-744).
T1 sequence: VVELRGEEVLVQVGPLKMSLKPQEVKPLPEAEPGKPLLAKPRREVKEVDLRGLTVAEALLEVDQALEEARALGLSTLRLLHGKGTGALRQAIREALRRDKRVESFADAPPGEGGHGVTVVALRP

Series [1] concerns the target T2, N60-ttMutS2 (Smr-deleted) (Thermus thermophilus, UniProt Q5SHT5 1-540).
T2 sequence: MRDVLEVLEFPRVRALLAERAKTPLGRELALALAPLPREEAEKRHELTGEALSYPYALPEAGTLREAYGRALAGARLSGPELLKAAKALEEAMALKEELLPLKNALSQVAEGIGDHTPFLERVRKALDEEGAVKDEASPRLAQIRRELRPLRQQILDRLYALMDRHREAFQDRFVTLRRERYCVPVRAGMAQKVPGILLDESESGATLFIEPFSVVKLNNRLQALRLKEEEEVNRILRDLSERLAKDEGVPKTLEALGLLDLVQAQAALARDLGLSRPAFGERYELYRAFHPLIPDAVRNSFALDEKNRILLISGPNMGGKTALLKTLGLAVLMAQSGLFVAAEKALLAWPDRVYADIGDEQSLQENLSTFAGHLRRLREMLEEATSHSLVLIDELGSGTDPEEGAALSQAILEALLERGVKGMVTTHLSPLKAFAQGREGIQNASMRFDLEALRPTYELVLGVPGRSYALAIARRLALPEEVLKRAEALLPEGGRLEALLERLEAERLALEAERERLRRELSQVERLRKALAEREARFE

Series [2] deals with T3, ttMutS2 (Thermus thermophilus, UniProt Q5SHT5 1-744).
T3 sequence: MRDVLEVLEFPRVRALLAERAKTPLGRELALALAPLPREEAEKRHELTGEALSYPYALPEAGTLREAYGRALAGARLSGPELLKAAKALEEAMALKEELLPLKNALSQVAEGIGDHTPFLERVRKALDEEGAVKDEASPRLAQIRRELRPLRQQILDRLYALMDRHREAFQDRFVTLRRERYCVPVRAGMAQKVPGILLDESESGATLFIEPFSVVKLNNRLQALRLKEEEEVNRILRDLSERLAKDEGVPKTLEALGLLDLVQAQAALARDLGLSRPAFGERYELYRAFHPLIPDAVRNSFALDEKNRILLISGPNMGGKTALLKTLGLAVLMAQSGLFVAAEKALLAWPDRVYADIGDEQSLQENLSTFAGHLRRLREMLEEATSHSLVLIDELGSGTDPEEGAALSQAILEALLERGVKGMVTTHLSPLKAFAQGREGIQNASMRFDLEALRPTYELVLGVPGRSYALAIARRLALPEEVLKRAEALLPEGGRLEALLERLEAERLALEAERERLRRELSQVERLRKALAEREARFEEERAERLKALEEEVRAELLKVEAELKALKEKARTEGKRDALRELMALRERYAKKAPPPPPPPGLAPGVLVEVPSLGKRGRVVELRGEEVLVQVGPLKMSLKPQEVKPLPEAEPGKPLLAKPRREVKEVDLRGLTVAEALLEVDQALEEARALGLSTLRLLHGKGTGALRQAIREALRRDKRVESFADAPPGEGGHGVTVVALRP

Series [3] deals with T2, N60-ttMutS2 (Smr-deleted). This is another data set of the same source.
Series [4] addresses T3, ttMutS2. The source holds these as a separate data set.

As for ATGTGAATCAGTATGGTTTC (ssDNA) [20mer ssDNA], the binding result with ttSmr is reported as “binds”; in series [1], “no binding”; with ttMutS2 [2] it was “no binding”.

B1: 20 bp dsDNA (dsDNA)
DNA 1: ATGTGAATCAGTATGGTTTC
DNA 2: GAAACCATACTGATTCACAT
Consider B1, for which the binding result (in series [3]; with ttMutS2 [4]) was “binds” throughout.
